Source: US20220315554A1 (3B PHARMACEUTICALS GMBH, published 2022)
Numbered stars: 1 amine (or outer) side, 2 acyl side, 3 side chain; on linkers, the order of the positions; unused ones are H or OH. Bridge positions count the residues as written; N and C are the ends. Ends that are not written are not given here. * marks the point of attachment. Ttds = 1,13-diamino-4,7,10-trioxatridecan-succinamic acid, NCCCOCCOCCOCCCNC(=O)CCC(=O)*; tMeBn(DOTA-AET) = Cys-Cys bridge (thioethers) carrying DOTA-AET; tMeBn(DOTA-PP) = Cys-Cys bridge (thioethers) carrying DOTA-PP; DOTA = O=C(O)CN1CCN(CC(=O)O)CCN(CC(=O)*)CCN(CC(=O)O)CC1; mXylylene = c1cc(C[*:1])cc(C[*:2])c1; 2Lut = Cys-Cys bridge (thioethers); 3Lut = Cys-Cys bridge (thioethers); Pentanesulfonyl = CCCCCS(=O)(=O)*; Hexanoyl = CCCCCC(=O)*

B1: Hex-[Cys(3MeBn)-Pro-Pro-Thr-Ala-Phe-Cys]-NH2 (peptide)
peptide: Hexanoyl-CPPTAFC-NH2
modifications: linker 1-7 via mXylylene
SMILES: CCCCCC(=O)N[C@H]1CSCc2cccc(c2)CSC[C@@H](C(N)=O)NC(=O)[C@H](Cc2ccccc2)NC(=O)[C@H](C)NC(=O)[C@H]([C@@H](C)O)NC(=O)[C@@H]2CCCN2C(=O)[C@@H]2CCCN2C1=O
B2: Hex-[Cys(3MeBn)-Pro-Pro-Ala-Glu-Phe-Cys]-NH2 (peptide)
peptide: Hexanoyl-CPPAEFC-NH2
modifications: linker 1-7 via mXylylene
SMILES: CCCCCC(=O)N[C@H]1CSCc2cccc(c2)CSC[C@@H](C(N)=O)NC(=O)[C@H](Cc2ccccc2)NC(=O)[C@H](CCC(=O)O)NC(=O)[C@H](C)NC(=O)[C@@H]2CCCN2C(=O)[C@@H]2CCCN2C1=O
B3: Hex-[Cys(3MeBn)-Pro-Pro-Thr-Gln-Phe-Cys]-Asp-Ape-NH-DOTA' (peptide)
peptide: Hexanoyl-CPPTQFCD
modifications: linker 1-7 via mXylylene; not fully specified (C-terminus); printed as Hex-[Cys(3MeBn)-Pro-Pro-Thr-Gln-Phe-Cys]-Asp-Ape(DOTA)
B4: Hex-[Cys(3MeBn)-Pro-Pro-Thr-Gln-Phe-Cys]-Asp-Ttds-Ape-NH-DOTA' (peptide)
peptide: Hexanoyl-CPPTQFCD
modifications: linker 1-7 via mXylylene; not fully specified (C-terminus); printed as Hex-[Cys(3MeBn)-Pro-Pro-Thr-Gln-Phe-Cys]-Asp-Ttds-Ape(DOTA)
B5: Hex-[Cys(tMeBn(DOTA-PP))-Pro-Pro-Thr-Gln-Phe-Cys]-Asp-NH2 (peptide)
peptide: Hexanoyl-CPPTQFCD-NH2
modifications: linker 1-7 via tMeBn(DOTA-PP)
B6: Hex-[Cys(tMeBn(DOTA-AET))-Pro-Pro-Thr-Gln-Phe-Cys]-Asp-NH2 (peptide)
peptide: Hexanoyl-CPPTQFCD-NH2
modifications: linker 1-7 via tMeBn(DOTA-AET)
B7: Hex-[Cys(3MeBn)-Pro-Pro-Thr-Gln-Phe-Cys]-Asp-NH2 (peptide)
peptide: Hexanoyl-CPPTQFCD-NH2
modifications: linker 1-7 via mXylylene
SMILES: CCCCCC(=O)N[C@H]1CSCc2cccc(c2)CSC[C@@H](C(=O)N[C@@H](CC(=O)O)C(N)=O)NC(=O)[C@H](Cc2ccccc2)NC(=O)[C@H](CCC(N)=O)NC(=O)[C@H]([C@@H](C)O)NC(=O)[C@@H]2CCCN2C(=O)[C@@H]2CCCN2C1=O
B8: Pentyl-SO2-[Cys(3MeBn)-Pro-Pro-Thr-Gln-Phe-Cys]-Asp-NH2 (peptide)
peptide: Pentanesulfonyl-CPPTQFCD-NH2
modifications: linker 1-7 via mXylylene
SMILES: CCCCCS(=O)(=O)N[C@H]1CSCc2cccc(c2)CSC[C@@H](C(=O)N[C@@H](CC(=O)O)C(N)=O)NC(=O)[C@H](Cc2ccccc2)NC(=O)[C@H](CCC(N)=O)NC(=O)[C@H]([C@@H](C)O)NC(=O)[C@@H]2CCCN2C(=O)[C@@H]2CCCN2C1=O
B9: Hex-[Cys(2Lut)-Pro-Pro-Thr-Gln-Phe-Cys]-Asp-NH2 (peptide)
peptide: Hexanoyl-CPPTQFCD-NH2
modifications: linker 1-7 via 2Lut
B10: Hex-[Cys(3Lut)-Pro-Pro-Thr-Gln-Phe-Cys]-Asp-NH2 (peptide)
peptide: Hexanoyl-CPPTQFCD-NH2
modifications: linker 1-7 via 3Lut
B11: Hex-[Cys(tMeBn(InDOTA-PP))-Pro-Pro-Thr-Gln-Phe-Cys]-Asp-NH2 (peptide)
peptide: Hexanoyl-CPPTQFCD-NH2
modifications: linker 1-7 via tMeBn(InDOTA-PP); also: In-DOTA complex
B12: Hex-[Cys(tMeBn(LuDOTA-PP))-Pro-Pro-Thr-Gln-Phe-Cys]-Asp-NH2 (peptide)
peptide: Hexanoyl-CPPTQFCD-NH2
modifications: linker 1-7 via tMeBn(LuDOTA-PP); also: Lu-DOTA complex
B13: Hex-[Cys(tMeBn(GaDOTA-PP))-Pro-Pro-Thr-Gln-Phe-Cys]-Asp-NH2 (peptide)
peptide: Hexanoyl-CPPTQFCD-NH2
modifications: linker 1-7 via tMeBn(GaDOTA-PP)
B14: Hex-[Cys(tMeBn(DOTA-AET))-Pro-Pro-Thr-Glu-Phe-Cys]-NH2 (peptide)
peptide: Hexanoyl-CPPTEFC-NH2
modifications: linker 1-7 via tMeBn(DOTA-AET)
B15: Hex-[Cys(tMeBn(DOTA-AET))-Pro-Pro-Thr-Gln-Phe-Cys]-Ser-OH (peptide)
peptide: Hexanoyl-CPPTQFCS-OH
modifications: linker 1-7 via tMeBn(DOTA-AET)
B16: Hex-[Cys(tMeBn(EuDOTA-PP))-Pro-Pro-Thr-Gln-Phe-Cys]-Asp-NH2 (peptide)
peptide: Hexanoyl-CPPTQFCD-NH2
modifications: linker 1-7 via tMeBn(EuDOTA-PP); also: Eu-DOTA complex
B17: Hex-[Cys(tMeBn(DOTA-AET))-Pro-Pro-Thr-Gln-Phe-Cys]-Asp-OH (peptide)
peptide: Hexanoyl-CPPTQFCD-OH
modifications: linker 1-7 via tMeBn(DOTA-AET)
B18: Hex-[Cys(tMeBn(DOTA-AET))-Pro-Pro-Thr-Gln-Phe-Cys]-asp-NH2 (peptide)
peptide: CPPTQFCD
modifications: N-terminal Hex (hexanoyl); Cys1-Cys7 bridged by tMeBn(DOTA-AET) (thioethers); D-Asp8 (asp); C-terminal amide
B19: Pentyl-SO2-[Cys(tMeBn(DOTA-AET))-Pro-Pro-Thr-Glu-Phe-Cys]-OH (peptide)
peptide: Pentanesulfonyl-CPPTEFC-OH
modifications: linker 1-7 via tMeBn(DOTA-AET)
B20: Pentyl-SO2-[Cys(tMeBn(DOTA-PP))-Pro-Pro-Thr-Gln-Phe-Cys]-Asp-NH2 (peptide)
peptide: Pentanesulfonyl-CPPTQFCD-NH2
modifications: linker 1-7 via tMeBn(DOTA-PP)
B21: DOTA-Ttds-Leu-[Cys(3MeBn)-Pro-Pro-Thr-Glu-Phe-Cys]-Asp-His-Phe-Arg-Asp-NH2 (peptide)
peptide: {DOTA-Ttds}-LCPPTEFCDHFRD-NH2
modifications: linker 2-8 via mXylylene
B22: Ac-[Cys(3MeBn)-Pro-Pro-Thr-Glu-Phe-Cys]-Asp-His-Phe-Arg-Asp-NH2 (peptide)
peptide: Ac-CPPTEFCDHFRD-NH2
modifications: linker 1-7 via mXylylene
SMILES: CC(=O)N[C@H]1CSCc2cccc(c2)CSC[C@@H](C(=O)N[C@@H](CC(=O)O)C(=O)N[C@@H](Cc2c[nH]cn2)C(=O)N[C@@H](Cc2ccccc2)C(=O)N[C@@H](CCCNC(=N)N)C(=O)N[C@@H](CC(=O)O)C(N)=O)NC(=O)[C@H](Cc2ccccc2)NC(=O)[C@H](CCC(=O)O)NC(=O)[C@H]([C@@H](C)O)NC(=O)[C@@H]2CCCN2C(=O)[C@@H]2CCCN2C1=O
B23: Hex-[Cys(3MeBn)-Pro-Pro-Thr-Glu-Phe-Cys]-Asp-His-Phe-Arg-Asp-NH2 (peptide)
peptide: Hexanoyl-CPPTEFCDHFRD-NH2
modifications: linker 1-7 via mXylylene
SMILES: CCCCCC(=O)N[C@H]1CSCc2cccc(c2)CSC[C@@H](C(=O)N[C@@H](CC(=O)O)C(=O)N[C@@H](Cc2c[nH]cn2)C(=O)N[C@@H](Cc2ccccc2)C(=O)N[C@@H](CCCNC(=N)N)C(=O)N[C@@H](CC(=O)O)C(N)=O)NC(=O)[C@H](Cc2ccccc2)NC(=O)[C@H](CCC(=O)O)NC(=O)[C@H]([C@@H](C)O)NC(=O)[C@@H]2CCCN2C(=O)[C@@H]2CCCN2C1=O

Molecular target: T1, human fibroblast activation protein (FAP) on FAP-expressing human WI-38 fibroblasts (human)
Test: competition FACS, WI-38 cells, vs Cy5-labeled compound; D: pIC50 ≤6.0

T1 sequence (chain, as listed by the source): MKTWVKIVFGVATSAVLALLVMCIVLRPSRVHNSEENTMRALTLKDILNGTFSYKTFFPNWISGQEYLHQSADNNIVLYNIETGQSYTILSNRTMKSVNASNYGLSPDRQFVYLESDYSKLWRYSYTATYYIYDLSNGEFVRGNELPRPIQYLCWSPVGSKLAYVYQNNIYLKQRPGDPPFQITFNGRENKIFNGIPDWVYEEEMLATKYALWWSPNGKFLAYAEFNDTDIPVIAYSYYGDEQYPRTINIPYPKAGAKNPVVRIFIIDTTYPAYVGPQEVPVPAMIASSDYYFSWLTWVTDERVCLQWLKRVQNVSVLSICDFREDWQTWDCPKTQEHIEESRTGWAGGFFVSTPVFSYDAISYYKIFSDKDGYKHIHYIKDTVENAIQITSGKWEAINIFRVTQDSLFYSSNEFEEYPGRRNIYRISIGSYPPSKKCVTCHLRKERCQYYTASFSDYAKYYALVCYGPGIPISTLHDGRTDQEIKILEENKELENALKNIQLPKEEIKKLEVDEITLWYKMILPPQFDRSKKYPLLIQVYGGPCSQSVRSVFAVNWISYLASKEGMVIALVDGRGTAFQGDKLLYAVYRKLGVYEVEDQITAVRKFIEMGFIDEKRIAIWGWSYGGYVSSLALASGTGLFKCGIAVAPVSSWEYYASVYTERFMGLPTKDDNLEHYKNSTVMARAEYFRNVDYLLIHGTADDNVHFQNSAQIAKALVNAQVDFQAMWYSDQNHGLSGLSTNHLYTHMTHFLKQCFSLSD

Binder	pIC50 Category (FACS) [pIC50]
B1	≤ 6
B2	≤ 6

Molecular target: T1, human fibroblast activation protein …
Test: competition FACS, WI-38 cells, vs Cy5-labeled compound; A: pIC50 >8.0

Binder	pIC50 Category (FACS) [pIC50]
B3	> 8
B4	> 8
B5	> 8
B6	> 8
B7	> 8
B8	> 8
B9	> 8
B10	> 8
B11	> 8
B12	> 8
B13	> 8
B14	> 8
B15	> 8
B16	> 8
B17	> 8
B18	> 8
B19	> 8
B20	> 8
B21	> 8
B22	> 8
B23	> 8
